Patent publication US20240261333A1 (published 2024)

Key:
[1] = molecular target: T1, IFNAR1, endogenous in A375 melanoma cells (human, UniProt P17181 28-557, poly-LacNAc glycosylation added by B3GNT2 (sites not given)); assay: co-IP of FLAG tagged B3GNT2 from A375 lysate, Western blot
T1 construct: whole, on cells; In the co-IP it comes from the lysate of A375 cells; also called IFNARI
T1 sequence (looked up): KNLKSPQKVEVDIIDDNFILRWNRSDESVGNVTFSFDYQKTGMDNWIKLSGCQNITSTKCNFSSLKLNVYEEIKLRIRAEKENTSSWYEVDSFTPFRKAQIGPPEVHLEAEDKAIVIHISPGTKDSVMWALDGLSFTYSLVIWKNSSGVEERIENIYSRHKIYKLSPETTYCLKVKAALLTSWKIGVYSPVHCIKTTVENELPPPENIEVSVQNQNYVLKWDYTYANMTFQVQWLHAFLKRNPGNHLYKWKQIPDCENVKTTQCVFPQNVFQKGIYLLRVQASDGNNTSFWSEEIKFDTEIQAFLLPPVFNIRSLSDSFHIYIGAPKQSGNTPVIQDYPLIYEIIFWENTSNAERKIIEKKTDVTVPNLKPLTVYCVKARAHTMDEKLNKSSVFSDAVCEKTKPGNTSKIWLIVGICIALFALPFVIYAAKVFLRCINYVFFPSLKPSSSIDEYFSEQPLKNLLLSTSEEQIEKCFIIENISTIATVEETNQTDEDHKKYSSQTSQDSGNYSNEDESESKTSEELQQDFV
Protocol: (§1) Cells were plated in 10-cm cell culture dishes and grown to 60-80% confluency. For each condition, two biological replicates were harvested for co-IP. Cells were washed with PBS and 4 mL of lysis buffer (20 mM HEPES, 1% Triton X-100, 150 mM NaCl, 1 mM EDTA, and 10% glycerol) containing protease inhibitor cocktail was added. Cells were scraped and lysate was incubated at 4° C. under rotary agitation for 1 h. Lysate was centrifuged at 14,000×g for 10 min at 4° C. Supernatant was transferred to a new tube and an aliquot was taken as the input. […] For Western blots, 10 μg/mL Chicken Anti-FLAG (Aves labs ET-DY100) and IgY control (R&D Systems AB-101-C) antibodies were biotinylated (Thermo Fisher Scientific 90407) and added to the respective conditions. Lysates with antibodies were incubated at 4° C. under rotary agitation overnight. For each mL of lysate, 50 μL of Pierce Protein A/G Magnetic Beads (Mass spectrometry; Thermo Fisher Scientific 88803) or Pierce Streptavidin Magnetic Beads (Western blot; Thermo Fisher Scientific 88817) was washed twice with lysis buffer. Lysates with antibodies were added to the beads and incubated at 4° C. under rotary agitation for 4 h. Beads were washed with lysis buffer 3 times and resuspended in lysis buffer for storage.

[2] = molecular target: T2, TNFRSF1A, endogenous in A375 melanoma cells (human, UniProt P19438 30-455, poly-LacNAc glycosylation added by B3GNT2 (sites not given)); assay: as above
T2 construct: whole, on cells; In the co-IP it comes from the lysate of A375 cells
T2 sequence (looked up): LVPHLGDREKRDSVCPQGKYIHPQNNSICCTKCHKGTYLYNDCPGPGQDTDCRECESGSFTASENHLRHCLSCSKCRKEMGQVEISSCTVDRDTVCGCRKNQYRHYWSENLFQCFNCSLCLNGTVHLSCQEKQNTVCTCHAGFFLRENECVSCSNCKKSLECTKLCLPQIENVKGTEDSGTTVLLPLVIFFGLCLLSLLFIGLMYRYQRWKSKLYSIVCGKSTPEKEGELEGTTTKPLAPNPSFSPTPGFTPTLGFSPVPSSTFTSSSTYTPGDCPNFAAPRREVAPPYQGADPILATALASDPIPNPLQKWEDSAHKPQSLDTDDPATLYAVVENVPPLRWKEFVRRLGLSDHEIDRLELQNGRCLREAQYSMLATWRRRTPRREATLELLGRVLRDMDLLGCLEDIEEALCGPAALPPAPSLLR
Protocol: as §1

[3] = molecular target: T3, CD276, endogenous in A375 melanoma cells (human, UniProt Q5ZPR3 29-534, poly-LacNAc glycosylation added by B3GNT2 (sites not given)); assay: as above
T3 construct: whole, on cells; On fixed A375 cells in flow cytometry; In the co-IP it comes from the lysate of these cells; also called B7H3
T3 sequence (looked up): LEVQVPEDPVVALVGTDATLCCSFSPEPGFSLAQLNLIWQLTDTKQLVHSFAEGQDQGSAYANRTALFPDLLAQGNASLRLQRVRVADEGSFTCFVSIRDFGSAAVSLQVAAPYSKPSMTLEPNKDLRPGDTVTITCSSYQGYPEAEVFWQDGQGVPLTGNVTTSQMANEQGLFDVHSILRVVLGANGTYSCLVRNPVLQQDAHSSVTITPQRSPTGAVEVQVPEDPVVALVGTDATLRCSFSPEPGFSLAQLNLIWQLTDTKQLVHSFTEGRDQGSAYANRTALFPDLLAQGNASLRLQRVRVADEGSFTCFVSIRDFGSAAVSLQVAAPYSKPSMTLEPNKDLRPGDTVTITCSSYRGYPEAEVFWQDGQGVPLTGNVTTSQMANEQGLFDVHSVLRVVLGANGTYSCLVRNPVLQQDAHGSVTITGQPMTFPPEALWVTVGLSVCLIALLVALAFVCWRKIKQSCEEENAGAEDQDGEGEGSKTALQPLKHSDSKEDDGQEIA
Protocol: as §1

[4] = molecular target: T4, PSMD4 (human, UniProt P55036 1-377, limits assumed); assay: co-IP with anti-FLAG, mass spectrometry; lysate of cells with C-FLAG B3GNT2
T4 construct: also called NP_001317621.1 (+1)
T4 sequence (P55036 whole entry): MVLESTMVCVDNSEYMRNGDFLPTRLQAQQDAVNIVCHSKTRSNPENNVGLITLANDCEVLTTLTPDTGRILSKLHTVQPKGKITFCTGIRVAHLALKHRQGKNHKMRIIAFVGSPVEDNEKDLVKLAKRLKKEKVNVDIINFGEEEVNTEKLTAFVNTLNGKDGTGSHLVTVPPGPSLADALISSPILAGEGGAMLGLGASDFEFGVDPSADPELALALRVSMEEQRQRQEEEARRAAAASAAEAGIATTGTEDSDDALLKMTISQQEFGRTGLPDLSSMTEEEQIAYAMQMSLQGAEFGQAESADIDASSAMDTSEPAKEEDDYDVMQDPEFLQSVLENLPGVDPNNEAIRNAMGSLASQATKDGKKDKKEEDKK
Protocol: as §1
(§2) Magnetic beads were resuspended in 100 mM Tris pH 7.8, reduced, alkylated and digested with trypsin at 37° ° C. overnight. This solution was subjected to solid phase extraction to concentrate the peptides and remove unwanted reagents followed by injection onto a Shimadzu HPLC with fraction collector. Eight fractions were collected and after concentration were injected on a Waters NanoAcquity HPLC equipped with a self-packed Aeris 3 μm C18 analytical column 0.075 mm by 20 cm, (Phenomenex). Peptides were eluted using standard reverse-phase gradients. The effluent from the column was analyzed using a Thermo Orbitrap Elite mass spectrometer (nanospray configuration) operated in a data dependent manner for 54 minutes. […]

[5] = molecular target: T5, MARS (human, UniProt P56192 1-900); assay: as above
T5 construct: also called NP_004981.2
T5 sequence (looked up): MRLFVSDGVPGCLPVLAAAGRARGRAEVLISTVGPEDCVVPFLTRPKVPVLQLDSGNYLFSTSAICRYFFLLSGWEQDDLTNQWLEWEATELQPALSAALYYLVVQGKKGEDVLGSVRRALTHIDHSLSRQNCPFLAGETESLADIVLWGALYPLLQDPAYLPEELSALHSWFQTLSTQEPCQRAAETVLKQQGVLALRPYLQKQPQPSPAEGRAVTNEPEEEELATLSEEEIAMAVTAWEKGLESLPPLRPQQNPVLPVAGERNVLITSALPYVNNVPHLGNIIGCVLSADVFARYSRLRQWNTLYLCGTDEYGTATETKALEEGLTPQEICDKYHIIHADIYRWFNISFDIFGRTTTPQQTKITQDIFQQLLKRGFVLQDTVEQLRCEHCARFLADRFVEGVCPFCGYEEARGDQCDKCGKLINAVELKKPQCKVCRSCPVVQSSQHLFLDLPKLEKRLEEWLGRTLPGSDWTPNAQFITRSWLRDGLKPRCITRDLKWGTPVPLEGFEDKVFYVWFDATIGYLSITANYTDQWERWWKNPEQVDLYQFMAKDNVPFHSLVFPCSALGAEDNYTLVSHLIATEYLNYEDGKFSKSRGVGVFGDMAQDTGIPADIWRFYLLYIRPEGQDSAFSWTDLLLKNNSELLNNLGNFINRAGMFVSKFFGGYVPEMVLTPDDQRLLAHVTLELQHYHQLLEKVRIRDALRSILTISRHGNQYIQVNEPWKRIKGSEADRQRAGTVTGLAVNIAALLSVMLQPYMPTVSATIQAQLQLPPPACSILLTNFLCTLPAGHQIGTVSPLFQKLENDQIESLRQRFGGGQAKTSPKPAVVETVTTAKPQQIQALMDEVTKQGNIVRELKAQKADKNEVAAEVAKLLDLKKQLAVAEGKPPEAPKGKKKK
Protocol: as §1, §2

[6] = molecular target: T6, CD70 (human, UniProt P32970 1-193); assay: as above
T6 construct: also called NP_001243.1
T6 sequence (looked up): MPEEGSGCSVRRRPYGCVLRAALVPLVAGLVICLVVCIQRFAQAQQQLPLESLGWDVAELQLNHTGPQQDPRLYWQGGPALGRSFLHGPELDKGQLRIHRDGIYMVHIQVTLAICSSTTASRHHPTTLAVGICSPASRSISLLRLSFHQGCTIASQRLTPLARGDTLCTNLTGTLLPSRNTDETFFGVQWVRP
Protocol: as §1, §2

[7] = molecular target: RPS17 (UniProt P08708 2-135); assay: co-IP with anti-FLAG, mass spectrometry; C-FLAG B3GNT2
Protocol: as §1
(§3) Magnetic beads were resuspended in 100 mM Tris pH 7.8, reduced, alkylated and digested with trypsin at 37° ° C. overnight. This solution was subjected to solid phase extraction to concentrate the peptides and remove unwanted reagents followed by injection onto a Shimadzu HPLC with fraction collector. Eight fractions were collected and after concentration were injected on a Waters NanoAcquity HPLC equipped with a self-packed Aeris 3 μm C18 analytical column 0.075 mm by 20 cm, (Phenomenex). Peptides were eluted using standard reverse-phase gradients. The effluent from the column was analyzed using a Thermo Orbitrap Elite mass spectrometer (nanospray configuration) operated in a data dependent manner for 54 minutes. The resulting fragmentation spectra were correlated against the known database using Proteome Discover 1.4 (Thermo Fisher Scientific).

[8] = molecular target: T7, ENO1 (UniProt P06733 2-434); assay: as above
T7 construct: Endogenous protein found in the co-IP by mass spectrometry; also called NP_001419.1
T7 sequence (P06733 2-434 limits assumed): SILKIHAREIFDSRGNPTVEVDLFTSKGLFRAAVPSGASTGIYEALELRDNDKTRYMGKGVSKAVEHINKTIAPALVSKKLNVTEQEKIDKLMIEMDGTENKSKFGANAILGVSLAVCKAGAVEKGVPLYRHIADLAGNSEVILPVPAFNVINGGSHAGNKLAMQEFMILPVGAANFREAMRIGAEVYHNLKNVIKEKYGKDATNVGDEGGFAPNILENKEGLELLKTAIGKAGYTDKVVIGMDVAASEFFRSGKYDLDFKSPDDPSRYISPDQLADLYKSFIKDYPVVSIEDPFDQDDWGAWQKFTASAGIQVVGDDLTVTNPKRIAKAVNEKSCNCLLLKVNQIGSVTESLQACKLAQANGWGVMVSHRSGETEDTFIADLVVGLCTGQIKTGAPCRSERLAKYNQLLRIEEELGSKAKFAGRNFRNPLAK
Protocol: as §1, §3

[9] = molecular target: RPS11 (UniProt P62280 2-158); assay: as above
Protocol: as §1, §3

[10] = molecular target: T8, S100A8 (UniProt P05109 1-93); assay: as above
T8 construct: Protein found in the co-IP by mass spectrometry; also called NP_002955.2
T8 sequence (looked up): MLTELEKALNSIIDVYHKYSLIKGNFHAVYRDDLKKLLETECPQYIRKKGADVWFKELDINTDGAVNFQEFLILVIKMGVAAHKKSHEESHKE
Protocol: as §1, §3

[11] = molecular target: T9, TRIM21 (UniProt P19474 1-475); assay: as above
T9 construct: Endogenous protein found in the co-IP by mass spectrometry; also called NP_003132.2
T9 sequence (P19474 whole entry): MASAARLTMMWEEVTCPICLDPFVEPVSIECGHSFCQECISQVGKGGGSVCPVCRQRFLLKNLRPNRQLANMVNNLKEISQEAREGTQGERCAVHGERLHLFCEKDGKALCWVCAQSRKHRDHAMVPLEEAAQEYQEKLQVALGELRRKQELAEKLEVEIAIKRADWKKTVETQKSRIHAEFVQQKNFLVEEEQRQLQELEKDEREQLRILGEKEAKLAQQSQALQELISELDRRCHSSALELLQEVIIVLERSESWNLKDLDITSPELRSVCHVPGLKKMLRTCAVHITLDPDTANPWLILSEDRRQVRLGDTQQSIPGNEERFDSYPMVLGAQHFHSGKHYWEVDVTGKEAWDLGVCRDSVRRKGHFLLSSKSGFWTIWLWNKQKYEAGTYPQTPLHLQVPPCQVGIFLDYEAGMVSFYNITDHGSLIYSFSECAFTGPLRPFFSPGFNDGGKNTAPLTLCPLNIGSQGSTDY
Protocol: as §1, §3

[12] = molecular target: T10, SPRR2E (UniProt P22531 1-72); assay: as above
T10 construct: Protein found in the co-IP by mass spectrometry; also called NP_001019380.2
T10 sequence (looked up): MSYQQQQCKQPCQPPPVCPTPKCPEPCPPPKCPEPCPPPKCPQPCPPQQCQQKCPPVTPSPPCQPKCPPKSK
Protocol: as §1, §3

[13] = molecular target: T11, PPIA (UniProt P62937 2-165); assay: as above
T11 construct: Endogenous protein found in the co-IP by mass spectrometry; also called NP_066953.1
T11 sequence (P62937 2-165 limits assumed): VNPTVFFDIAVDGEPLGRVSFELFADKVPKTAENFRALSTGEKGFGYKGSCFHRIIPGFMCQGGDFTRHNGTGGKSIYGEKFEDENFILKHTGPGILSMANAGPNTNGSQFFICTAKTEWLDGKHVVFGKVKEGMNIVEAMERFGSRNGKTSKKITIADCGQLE
Protocol: as §1, §3

[14] = molecular target: T12, AHNAK (UniProt Q09666 1-5890); assay: as above
T12 construct: Endogenous protein found in the co-IP by mass spectrometry; also called NP_001611.1
Protocol: as §1, §3

[15] = molecular target: T13, S100A9 (UniProt P06702 1-114); assay: as above
T13 construct: Protein found in the co-IP by mass spectrometry; also called NP_002956.1
T13 sequence (looked up): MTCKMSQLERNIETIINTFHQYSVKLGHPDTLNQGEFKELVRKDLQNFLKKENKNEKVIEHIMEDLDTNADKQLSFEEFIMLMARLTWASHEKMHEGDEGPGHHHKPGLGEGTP
Protocol: as §1, §3

B1: FLAG tagged B3GNT2 (N- or C-terminal FLAG tag) (enzyme, human, UniProt Q9NY97 1-397, looked up)
chain: MSVGRRRIKLLGILMMANVFIYFIMEVSKSSSQEKNGKGEVIIPKEKFWKISTPPEAYWNREQEKLNRQYNPILSMLTNQTGEAGRLSNISHLNYCEPDLRVTSVVTGFNNLPDRFKDFLLYLRCRNYSLLIDQPDKCAKKPFLLLAIKSLTPHFARRQAIRESWGQESNAGNQTVVRVFLLGQTPPEDNHPDLSDMLKFESEKHQDILMWNYRDTFFNLSLKEVLFLRWVSTSCPDTEFVFKGDDDVFVNTHHILNYLNSLSKTKAKDLFIGDVIHNAGPHRDKKLKYYIPEVVYSGLYPPYAGGGGFLYSGHLALRLYHITDQVHLYPIDDVYTGMCLQKLGLVPEKHKGFRTFDIEEKNKNNICSYVDLMLVHSRKPQEMIDIWSQLQSAHLKC
notes: The text speaks of the co-IP of B3GNT2 without separating the N-FLAG and C-FLAG constructs, so both are held as one molecule; also called N-FLAG B3GNT2; C-FLAG B3GNT2; not shown: FLAG tag at the N- or the C-terminus
- binding result [1]: binds
- binding result [2]: binds
- binding result [3]: binds

B2: C-terminal FLAG tagged B3GNT2 (enzyme, human, UniProt Q9NY97 1-397, looked up)
chain: B1 chain
notes: Bait of the co-IP; pulled down with mouse anti-FLAG (Millipore Sigma F3165) from cell lysate; also called C-FLAG B3GNT2; C-term flag; not shown: C-terminal FLAG tag
- co-IP mass spectrometry count [4]: 0
- co-IP mass spectrometry count [5]: 0
- co-IP mass spectrometry count [6]: 2

B3: C-terminal FLAG tagged B3GNT2 (enzyme, human, UniProt Q9NY97 1-397, looked up)
chain: B1 chain
notes: FLAG-tagged ORF overexpressed in cells; bait of the anti-FLAG co-IP; also called C-FLAG B3GNT2; C-term flag; not shown: FLAG tag at the C-terminus
- co-IP mass spectrometry count [7]: 10
- co-IP mass spectrometry count [8]: 4
- co-IP mass spectrometry count [9]: 18
- co-IP mass spectrometry count [10]: 3
- co-IP mass spectrometry count [11]: 0
- co-IP mass spectrometry count [12]: 0
- co-IP mass spectrometry count [13]: 0
- co-IP mass spectrometry count [14]: 2
- co-IP mass spectrometry count [15]: 9
